Data: the supplement of paper PMC10567573

B1: CLPTM1 (parent)
chain: MNLHVYISEHEHFTDFNATSALFW
B2: INTS4 (parent)
chain: IRLVDDAFGKICHMVSDGSWVVRV

Variants of: B1
Test: protein stability index of a GFP-peptide fusion (GPS, HEK-293T) (PSI 1-6); higher = more stable
Conditions: c terminus: a fixed tail appended
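Further: lentivirally expressed fusions sorted by FACS into six bins by GFP to DsRed ratio, PSI derived from sequencing read proportions per bin multiplied by bin number.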

Protein stability index, by site and new letter:
T14: K 3.17 | M 4.02 | V 1.81 | C 3.04 | P 4.65 | S 3.26 | H 4.34 | Y 1.62 | I 2.23 | Q 2.62 | E 3.86 | A 3.39
I7: C 2 | S 2.45 | F 2.58 | A 2.6 | V 3.33 | D 2.53 | M 3.09 | E 2.48 | H 1.79 | Y 4.01 | W 2.65 | G 2.92 | K 2.96 | R 3.14 | N 3.55 | L 2.45
S8: L 2.96 | H 3.35 | W 3.59 | Y 2.98 | P 3.32 | I 1.69 | T 2.08 | D 3.18 | R 3.37
F16: K 2.96 | D 1.79 | N 2.56 | R 1.62 | E 2.87 | G 2.76 | S 2.19 | I 1.71 | T 1.87 | W 2.71 | H 3.52 | Y 2.26
H10: M 2.73 | V 1.99 | S 2.59 | E 2.77 | P 2.64 | T 3.76 | G 2.58 | C 2.77 | D 2.41 | I 1.28
E11: Y 3.67 | M 3.46 | A 1.98 | T 2.47 | F 3.56 | C 3.77 | V 4.02 | Q 2.87 | I 2.42 | D 2.39
D15: K 2.71 | A 3.71 | Q 2.3 | S 4.3 | Y 2.52 | E 2.73 | M 3 | W 3.89 | C 2.43 | T 3.63
E9: Q 2.96 | K 2.52 | A 2.82 | N 3.59 | H 4.25 | P 1.5 | M 3.76 | T 2.48 | F 2.28 | L 1.96 | G 4.46 | V 3.22 | Y 2.5
F13: E 3.52 | A 3.39 | H 2.67 | Q 2.2 | S 2.4 | V 2.63 | N 3.8 | W 4.9 | C 2.51 | L 4.51 | K 4.65 | T 1.95 | G 2.42 | R 2.5 | P 2.63
V5: T 1.76 | Y 2.24 | N 1.39 | L 2.05 | H 2.42 | I 3.89 | Q 1.48 | D 2.1 | S 3.51 | E 1.34 | A 2.42 | W 4.32 | M 3.04 | K 2.01
L3: I 3.08 | G 2.78 | S 2.15 | R 1.96 | T 1.47 | E 2.62 | P 1.52 | D 2.44 | K 1.9 | M 2.18 | C 1.94 | V 1.14 | F 2.7 | N 1.2 | W 1.98 | Q 1.42
H12: L 1.41 | F 3.38 | C 2.72 | P 2.64 | S 1.83 | Y 2.77 | M 2.39 | T 2.1 | Q 1.98 | W 3.67
M1: P 1.93 | N 3.69 | S 2.69 | R 2.51 | Y 2.55 | G 2.8 | D 1.72 | Q 2.58 | F 2.29 | T 2.97 | V 3.6 | I 3.18 | E 1.33 | K 2.95
H4: P 1.43 | L 2.97 | F 1.89 | Q 2.12 | I 2.62 | Y 4.32 | R 5.47 | E 1.45 | W 4.27 | M 2.69 | K 1.99
N2: G 2.73 | C 2.73 | P 1.55 | F 3.32 | I 2.04 | Y 2.55 | V 3.88 | T 2.58 | D 1.53 | M 2.77 | S 4.89 | Q 1 | L 2.57
Y6: D 2.1 | C 2.52 | Q 2.4 | E 2.93 | A 2.15 | R 3.35 | H 2.59 | T 4.82 | F 2.84 | I 2.61 | N 2.22 | K 3.26 | L 3.45 | P 1.49 | S 3.07

Variants of: B2
Test: as above
Conditions: c terminus: a fixed tail appended

Protein stability index: each site, then its substitutions
W20: Y 2.87 | F 2.47 | D 1.61 | V 3.08 | L 2.83 | Q 3.26 | I 2.89 | R 2.79 | A 3.43 | G 1.7 | E 1.64 | K 1.36 | H 3.71
G18: F 2.29 | N 2.01 | T 1.95 | Y 1.62 | E 2.57 | R 2.9 | M 1.8 | P 4.4 | S 1.88 | K 3.25 | D 3.61 | I 3.15
R23: D 2.15 | L 4.2 | C 3.87 | I 3.28 | G 2.32 | N 2.02 | T 1.88 | F 3 | S 2.39 | H 2.94 | E 2.13 | M 3.4 | A 4.14
V24: S 2.31 | D 1.47 | Q 2.04 | P 3.21 | C 2.68 | R 3.03 | H 2.79 | W 1.57 | K 1.58 | M 1.46 | T 4 | Y 3.37 | F 3.03 | I 3.12 | N 1.42
V21: K 3.29 | R 2.88 | Y 4.71 | L 2.25 | P 1.98 | F 2.62 | H 3.08 | G 1.89 | E 2 | T 2.18 | C 3.07
S16: R 2.56 | N 2.52 | F 2.14 | I 2.59 | C 2.56 | E 2.31 | W 1.91 | V 1.29 | D 1.29 | Q 2.47 | M 2.25 | L 3.17
S19: V 3.96 | I 3.87 | M 2.38 | T 3.28 | L 2.95 | Q 3.45 | H 3.8 | F 2.73 | P 3.43 | G 1.58 | W 1.01 | C 1.73 | A 2.89 | D 3.41 | K 2.25
D17: W 2.22 | V 3.15 | E 2.35 | A 3.62 | N 2.41 | Q 3.32 | K 1.48 | G 2.05 | C 2.15 | P 2.05 | F 1.24 | R 2.02 | S 3.98 | M 1.92 | H 3.91 | L 2.79
V15: C 4.47 | L 2.74 | A 3.99 | S 1.84 | N 3.28 | G 3.51 | R 3.53 | Q 3.06 | I 2.87 | P 3.17 | D 2.06 | T 3.2 | K 2.06 | H 2.22 | F 2.51
V22: L 2.82 | W 2.35 | K 3.02 | T 4.7 | E 2.56 | Y 4.15 | H 2.78 | C 3.31 | F 3.53 | R 3.28 | I 3.27 | D 3.6
